From publication PMC5552909, “The first description of a hormone‐sensitive lipase from a basidiomycete: Structural insights and biochemical characterization revealed Bjerkandera adusta BaEstB as a novel esterase” (MicrobiologyOpen, 2017)

What was measured:
[1] = molecular target: Bjerkandera adusta BaEstB, Hormone-Sensitive Lipase (HSL) family esterase (Bjerkandera adusta); assay: dynamic light scattering (DLS); purified BaEstB in presence of the substrate 2-naphthyl acetate; same conditions, considering its optimum pH and temperature; 12 scans of 10 s
[2] = molecular target: Bjerkandera adusta BaEstB, Hormone-Sensitive Lipase (HSL) family esterase (Bjerkandera adusta); assay: dynamic light scattering (DLS); purified BaEstB without substrate; 30°C; Malvern Zetasizer Nano ZSP; 12 scans of 10 s; hydrodynamic radius from the Stokes-Einstein equation assuming spherical geometry
[3] = substrate: CC(=O)Oc1ccc2ccccc2c1; assay: isothermal titration calorimetry, single injection, Michaelis-Menten fit; type: biochemical, Bjerkandera adusta; settings: 30°C in methods, results state optimum pH and temperature (pH 7.0; 45°C)

stoichiometry N [1] | stoichiometry N [2] | Molecule | Km [3] | kcat [3]
2 | 2 | Bjerkandera adusta BaEstB, Hormone-Sensitive Lipase (HSL) family esterase (enzyme) |  | 
 |  | BaEstB (Bjerkandera adusta) (protein, full-length ORF (969 nt, M1-E322) in pPICZalphaA with myc and poly-His tags; secreted from Pichia pastoris X-33; dimer by DLS; catalytic triad S163, D252, H285) MESIRLSNAAGTISNDILAQVTFANEAIYPLLEKRRAEIENVTRKTFRYGALPGSEMDVYYPSSTPSGKAPVLAFVHGGAYVHGSKTHPPPGDLIYKNVGAFYASQGFVTVIPDYRKLPGMKWPDAPSDIASALTFLVAHSSDVNASAPTAADVQNIFLVGHSAGGAIASDVLLAPGLLPANVRRSVRGLIVFGGMMHYRGLEYPIPPFVLPGYYGTDEDVRAHEPLGLLESASDEIVRGLPDVLMVLSEHDVAAMRAAVTDFRSALAERTGKDVPLLVAQGHNHISPHYALSSGEGEEWGHDVIRWMRAKLASGNGVPATE | 7.68 ± 0.62 µM | 5.31 × 10^3 ± 20 s^−1
